The record followed here is patent US9512172B2, “Ethanol dependence of alpha1 antitrypsin C-terminal Lys truncation by basic carboxypeptidases” (Baxalta Incorporated, priority 2006, dated 2016).

Changes are numbered by the printed parent chain.

Data set [1] is described as follows: Percent C-terminal Lys truncated (des-Lys) A1PI in A1PI products. Type of data set: physicochemical, human. The note with it: commercial product. Here is the method:
(§1) ARALAST® (Alpha1-Proteinase Inhibitor (Human)), Prolastin PROLASTIN® (Alpha1-Proteinase Inhibitor (Human)), and ZEMAIRA® (Alpha1-Proteinase Inhibitor (Human)) were analyzed by high-resolution IEF and high-performance size-exclusion chromatography (HP-SEC). Preparative separated isoforms from IEF were further purified by chromatography and subjected to mass spectrometry for sequence analyses, peptide mapping, and glycosylation analysis. Deamidation was quantified by enzymatic isoaspartate detection. Multiple sequence alignments and structural bioinformatics analyses were performed.

Data set [2] is described as follows: HP-SEC aggregate content of A1PI products. In kind it is physicochemical. Here is the method:
as §1

Another data set concerns the target T1, CPN (Homo sapiens, UniProt P15169).
T1 sequence (P15169 21-458): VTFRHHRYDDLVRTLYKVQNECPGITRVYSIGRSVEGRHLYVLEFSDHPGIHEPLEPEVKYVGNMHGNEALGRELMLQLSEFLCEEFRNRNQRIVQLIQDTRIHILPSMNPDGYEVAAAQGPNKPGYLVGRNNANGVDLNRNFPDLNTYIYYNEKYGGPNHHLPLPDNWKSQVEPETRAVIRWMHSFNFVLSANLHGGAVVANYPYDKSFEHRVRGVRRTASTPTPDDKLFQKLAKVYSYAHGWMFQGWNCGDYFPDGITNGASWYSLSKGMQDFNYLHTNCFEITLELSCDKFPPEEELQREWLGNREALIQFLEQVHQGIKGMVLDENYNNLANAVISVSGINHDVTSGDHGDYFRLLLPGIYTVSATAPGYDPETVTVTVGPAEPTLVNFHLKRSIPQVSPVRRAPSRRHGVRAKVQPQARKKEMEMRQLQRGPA
T1 sequence (P22792 22-545 partner): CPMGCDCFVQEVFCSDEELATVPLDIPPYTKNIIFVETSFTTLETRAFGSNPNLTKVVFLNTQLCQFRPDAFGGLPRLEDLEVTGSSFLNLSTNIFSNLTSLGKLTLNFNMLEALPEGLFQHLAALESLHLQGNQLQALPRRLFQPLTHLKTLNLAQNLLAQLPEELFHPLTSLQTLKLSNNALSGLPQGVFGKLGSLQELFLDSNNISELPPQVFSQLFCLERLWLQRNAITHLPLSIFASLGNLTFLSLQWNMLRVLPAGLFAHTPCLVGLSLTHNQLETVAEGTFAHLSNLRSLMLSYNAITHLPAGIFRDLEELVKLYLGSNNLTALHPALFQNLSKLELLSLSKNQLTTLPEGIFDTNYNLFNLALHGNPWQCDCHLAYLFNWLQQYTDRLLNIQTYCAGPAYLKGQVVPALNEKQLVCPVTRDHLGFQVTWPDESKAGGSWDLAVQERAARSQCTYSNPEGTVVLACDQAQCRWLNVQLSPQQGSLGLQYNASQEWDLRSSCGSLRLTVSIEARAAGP
In words: CPN-catalysed removal of C-terminal lysine from A1PI products, released Lys by HPLC. In kind it is biochemical. The arrangement: purchased Elastin Company. The note with it: for Ethanol concentration at which linear increase of Lys removal starts: incubation with CPN, 10 min. As for the experimental part:
The cleaved C-terminal lysine of A1PI was determined using automated orthophtalicdialdehyd (OPA) pre-column derivatization and high-performance liquid chromatography. The derivatization reagent was prepared by dissolving 100 mg of OPA in 2.5 mL of methanol by short ultrasonication, adding 23 mL of deoxygenated sodium borate buffer (0.2 mol/L, pH 9.0), 100 μl of 2-mercaptoethanol and 100 μl of Brij 35 as described^53. The system used was an ASTED HPLC system (Gilson, Paris) with Shimadzu RF-A fluorescence detector and a C-18 Chromolith ODS 4.7*100 mm column. A mixture of 50 mM KH2PO4, acetonitrile and methanol (ratio 50:24:26) was used as mobile phase and ornithine was used as internal standard.
To 30 μl 0.5 mM A1PI (using ARALAST® (Alpha1-Proteinase Inhibitor (Human)) or PROLASTIN® (Alpha1-Proteinase Inhibitor (Human))) 10 μl water or ethanol (different concentrations) was added. Afterwards 10 μl CPN (500 U/L) was added and after a 10 minutes incubation interval the reaction was stopped by adding 50 μl internal standard in 0.25 M HCl. The cleaved lysine was quantified as described above.

A further data set has as its target T2, CPN present in the paste (Homo sapiens, UniProt P15169).
T2 construct: Cohn IV-1 precipitate is usually derived after ethanol fractionation of plasma; from tissue; host or cells: Cohn IV-1 paste (ethanol precipitate of plasma)
T2 sequence (P15169 21-458): T1 sequence (P15169 21-458)
T2 sequence (P22792 22-545 partner): T1 sequence (P22792 22-545 partner)
Nature of the data set: Effect of CP inhibitors on C-terminal lysine truncation in dissolved, ethanol-treated IV-1 paste (IEF). Type of data set: biochemical. Here is the method:
(§2) Cohn IV-1 paste was dissolved in 2.6 volumes of 10 mM Tris-buffer at pH 8.8 and incubated for 30 min at 22° C. The suspension was made 40% in ethanol (by addition of 2.4 volumes of ethanol), stirred for a further 60 min, diluted with the same Tris-buffer to 10% ethanol and extracted for a further 6 h.
The following inhibitors were added in parallel during extraction and dilution with Tris-buffer: 100 mM 6-aminocaproic acid, 10 μM or 1 nM 2-mercaptomethyl-3-guanidinoethylthiopropanoic acid (a more specific inhibitor of CPN). The samples were characterized by high resolution isoelectric focusing.
(§3) For high resolution isoelectric focusing a new hybrid IEF method using IPG-Immobiline gels (GE Healthcare Bio-Sciences, pI 4.2-4.9, Uppsala, Sweden) was developed which is similar to that described by Weidinger^54. Samples were diluted with water to 0.5 mg A1PI/mL and 5 mM DTE was added. Samples (20 μl) were applied close to the cathode on the pre-focused gel and focused for 150 min (5000 Vh). For paste extracts focusing time was extended to 420 min. Gels were stained with Coomassie Brilliant Blue G-250 (BioRad, Hercules, USA) as described by Neuhoff^55. Blotting and immunostaining were done with a rabbit anti-A1PI antibody (Rabbit Anti-Human Alpha-1-Antitrypsin, #A0012, DakoCytomation, Glostrup, Denmark).

Data set [3] has as its system A1PI. Nature of the data set: Incubation of purified non-truncated A1PI with carboxypeptidases, analysis by IEF. Type of data set: biochemical, human. The settings on record: for Lys truncation of A1PI by carboxypeptidase: A1PI in temporary contact with 40% ethanol, then diluted to 10% ethanol; for C-terminal lys removal from A1PI by carboxypeptidase: in the presence of only 10% ethanol. Here is the method: A1PI solutions were incubated with different CPs. Temporary exposure to 40% ethanol was achieved by diluting the A1PI preparation (38 μM) with 96% ethanol. The precipitate formed was kept 30 min at −20° C. and a further 30 min at +4° C., before it was diluted with TRIS-HCl buffer (pH 8.8) to a final concentration of 10% ethanol. Concomitantly, CPs were added with the TRIS buffer and the reaction mixture containing 10 μM A1PI was then incubated at 37° C. for 60 min. Before IEF analysis dithioerythritol (DTE) was added to a final concentration of 5 mM. In addition, the incubation with CPs was done without ethanol or at 10% ethanol. Furthermore, we ran two concentration rows with either CPN (270-1 mU/ml) or CPM (250-10 mU/ml) after temporary exposure of A1PI to 40% ethanol (CPN units were tested against Hip-Arg).
as §3

Data set [4] relates to A1PI. In words: C-terminal Lys truncation of A1PI in dissolved Cohn IV-1 paste (IEF). Type of data set: biochemical, human. The settings on record: presence of only 10% ethanol; CPB added, CPN as present in the paste. Here is the method:
as §2
IV-1 paste was dissolved in 20.6 volumes of 10 mM Tris-buffer at pH 8.8 and incubated during 30 min at 22° C. The suspension was made 10% in ethanol (by addition of 2.4 volumes of ethanol) and stirred for a further 6 h at 22° C. and pH 8.8.
as §3

Consider “ZEMAIRA: Alpha1-Proteinase Inhibitor (Human), approved plasma-derived A1PI concentrate”, for which, in data set [1], the “Percent of A1PI C-terminal truncation as compared to total A1PI protein” value is 6%.

Turning to “PROLASTIN: Alpha1-Proteinase Inhibitor (Human), approved plasma-derived A1PI concentrate, purified from fraction IV-1”, the Aggregate content entry in data set [2] is reported as “approximately 30%”. Also, the “Lys removed by CPN” value with CPN (absence of ethanol) was “very small amounts”. Also, in the data set with CPN, the “Ethanol concentration at which linear increase of Lys removal starts” value was 5 % ethanol.

For “ARALAST: Alpha1-Proteinase Inhibitor (Human), approved plasma-derived A1PI concentrate, made from Cohn IV-1+IV-4 paste”, the “Ethanol concentration at which linear increase of Lys removal starts” value with CPN turned out to be 10 % ethanol.

For the molecule `NCCCCCC(=O)O` [6-amino caproic acid], on CPN present in the paste (dissolved IV-1 paste, pH 8.8, 6 h), the “Inhibition of Lys truncation induced by the procedure 40=>10% EtOH” value is “could be inhibited”. At CPN present in the paste (inhibitor at 100 mM), the “Inhibition of lysine removal from A1PI” value is listed as “completely inhibited”.

B1: CPB: carboxypeptidase B, EC 3.4.17.2, small 35 kDa carboxypeptidase from pancreas (protein, UniProt P15086 111-417, looked up)
Carboxypeptidase B: ATGHSYEKYNKWETIEAWTQQVATENPALISRSVIGTTFEGRAIYLLKVGKAGQNKPAIFMDCGFHAREWISPAFCQWFVREAVRTYGREIQVTELLDKLDFYVLPVLNIDGYIYTWTKSRFWRKTRSTHTGSSCIGTDPNRNFDAGWCEIGASRNPCDETYCGPAAESEKETKALADFIRNKLSSIKAYLTIHSYSQMMIYPYSYAYKLGENNAELNALAKATVKELASLHGTKYTYGPGATTIYPAAGGSDDWAYDQGIRYSFTFELRDTGRYGFLLPESQIRATCEETFLAIKYVASYVLEHLY
With B1, in the data set on A1PI [3], the “Lys truncation of A1PI by carboxypeptidase” value is “almost complete” and the “C-terminal lys removal from A1PI by carboxypeptidase” value is recorded as “completely truncate”. Besides, the “Lys truncation of A1PI in dissolved IV-1 paste by carboxypeptidase” value in the data set with A1PI [4] is on record as “almost complete”.

B2: CPM: carboxypeptidase M, EC 3.4.17.12, recombinant, expressed in P. pastoris (protein, UniProt P14384 18-423, looked up)
Carboxypeptidase M: LDFNYHRQEGMEAFLKTVAQNYSSVTHLHSIGKSVKGRNLWVLVVGRFPKEHRIGIPEFKYVANMHGDETVGRELLLHLIDYLVTSDGKDPEITNLINSTRIHIMPSMNPDGFEAVKKPDCYYSIGRENYNQYDLNRNFPDAFEYNNVSRQPETVAVMKWLKTETFVLSANLHGGALVASYPFDNGVQATGALYSRSLTPDDDVFQYLAHTYASRNPNMKKGDECKNKMNFPNGVTNGYSWYPLQGGMQDYNYIWAQCFEITLELSCCKYPREEKLPSFWNNNKASLIEYIKQVHLGVKGQVFDQNGNPLPNVIVEVQDRKHICPYRTNKYGEYYLLLLPGSYIINVTVPGHDPHITKVIIPEKSQNFSALKKDILLPFQGQLDSIPVSNPSCPMIPLYRNLPDHS
Take B2: in the data set on A1PI [3] (40% ethanol-pretreated purified A1PI), the “Carboxypeptidase concentration inducing 50% C-terminal A1PI truncation” value was 50 mU/ml. Moreover, the “Lys truncation of A1PI by carboxypeptidase” value with A1PI [3] is given as “almost complete”.

B3: CPN: carboxypeptidase N, EC 3.4.17.3, basic carboxypeptidase of plasma (protein, UniProt P15169 21-458; P22792 22-545, looked up)
Carboxypeptidase N catalytic …: T1 sequence (P15169 21-458)
Carboxypeptidase N subunit 2: T1 sequence (P22792 22-545 partner)
With B3, in the data set with A1PI [3] (50 mU CPN/ml), the “C-terminal lysines cleaved from purified uncleaved A1PI” value was 10-20%. Also, in the data set on A1PI [3], the “Lys truncation of A1PI by carboxypeptidase” value is recorded as approximately 60% and the “C-terminal lys removal from A1PI by carboxypeptidase” value is “slightly”. For the same molecule, the “Lys truncation of A1PI in dissolved IV-1 paste by carboxypeptidase” value in the data set with A1PI [4] is on record as “did not remove the C-terminal lysine”.
